Measurements from article PMC3229553.

Target: Orb (Drosophila (endogenous in ovaries))
Experiment: co-IP; wild type ovary extract precipitated with Orb antibody coupled to protein A/G beads, room temperature 2 hours; Co-IP buffer 20 mM Hepes pH 7.5, 150 mM NaCl, 2.5 mM MgCl2, 250 mM sucrose, 0.05% NP40, 0.5% Triton-X, with RNase A; Western blot for Cup; HA antibody as negative control

percent of Cup pulled down: 10%
B1: Cup (natural protein)
chain: MQMAEAEQENGAGALKIATNAGATDRPAHQQLPLPVEDQQDEVLTPAEKGKFEYPPPPPPPTPVQAPLATKATALNASQEHDDDEANSEKWEDPCAPPPPPPLPTSAFLATGLGYLKLPAFKLKDALEKAITKLEANKRTLKASPESSRSIKNKNVVALEMLPRRSNPETIGDGSMLASTSTAVMLQTKKPAVIVEMERRCKIINLLAKQNQILESISGEAIPMHGPSKHLHEDEGLTLQVLSARASTPYTQPSSMLSCTAVSCDLEHDSPRKQVASKEAVPEQQSSQVQQKRPPSTGIHKPGSLRAPKAVRPTTAPVVSSKPVKSYTRSRLMDIRNGMFNALMHRSKESFVMPRIATCDDIELEGRLRRMNIWRTSDGTRFRTRSTTANLNMNNNNNNECMPAFFKNKNKPNLISDESIIQSQPPQPQTEFQDPAIVNQRRIGSGRLNHSKWGYNDEDYHSYHNGKSQHMEEVNSKNSKNMTVLQFFDNGEISSQPQRRPNTPVMGMSINRSENDTLHSNESSEDLSRANENYVKRVMSGFLVVSKPKSRDVEDRHHRRYRNQNEEPEWFSCGPTSRLDTIELCGFDEDEEKMLKEGNKNHGLGETERETSKQKMDHKYKWTHAEPMGRSKYMPKHDTNNNHNVENMNNVMATEHQQQKEEKRPGSGRSFQFDKFNQSQQNYESSSYVNHQQPPQTQPQQMQQQSNTNTNNSKFMSFFANEGNSSSSSLNEFFKQAINQGHGNNPEQPKSLGHIGQMPSVDQLEAKWRRNSLNNVGETANKQTDNFQKLIGSLSSAKPQSQAVGYDAISNFIMQQQQYQQQQQKQHLIIQQQQQHTAFLASLQLKAILGRADTQLLLLRLTKGEISKHGLLVQLANPRLTDMDREAITAVLQFTNTQQQQQQHKQQLDMLSSTVIASQLQNLHNLAIVQQTLAARQQPQHNPQTQAPHQLSQEDLQAHANVIMRNAVMKRKIEEQTSKLINGGAKHQAQQQYLNRGQQRQARPDANSNALLHALISGGGNNHASGYPMNGQPQKHHSNLRFGDNQNFQSFESNQPHFATQYKQQYQQSQQQHPHQQPQQLNSLHQNNAGAVNSFNKAQMQAQSAISMLPNSGDEFH
